According to publication PMC3763810:

target: ghrelin O-acyltransferase (GOAT) with a C-terminal 3xFlag tag (mouse) (UniProt P0C7A3)
Chain of UniProt P0C7A3 (P0C7A3 whole entry): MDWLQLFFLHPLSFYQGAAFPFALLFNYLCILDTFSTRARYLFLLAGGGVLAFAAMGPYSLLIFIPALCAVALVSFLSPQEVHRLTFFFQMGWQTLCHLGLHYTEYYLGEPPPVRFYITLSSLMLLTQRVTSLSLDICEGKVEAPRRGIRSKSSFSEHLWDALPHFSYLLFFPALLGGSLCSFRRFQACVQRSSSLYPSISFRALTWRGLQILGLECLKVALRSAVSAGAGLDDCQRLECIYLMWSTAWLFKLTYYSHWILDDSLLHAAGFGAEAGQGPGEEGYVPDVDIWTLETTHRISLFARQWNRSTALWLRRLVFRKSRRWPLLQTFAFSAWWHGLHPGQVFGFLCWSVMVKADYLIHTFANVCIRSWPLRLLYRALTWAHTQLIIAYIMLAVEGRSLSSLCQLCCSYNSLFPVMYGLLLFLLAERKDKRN

| Substance | inhibition of ghrelin acylation in cells, compounds used at 6 μM [%] |
| --- | --- |
| GO-CoA-Tat (peptide) | 75 |

target: growth hormone secretagogue receptor (GHS-R1a) (UniProt Q92847)
Chain of UniProt Q92847 (Q92847 whole entry): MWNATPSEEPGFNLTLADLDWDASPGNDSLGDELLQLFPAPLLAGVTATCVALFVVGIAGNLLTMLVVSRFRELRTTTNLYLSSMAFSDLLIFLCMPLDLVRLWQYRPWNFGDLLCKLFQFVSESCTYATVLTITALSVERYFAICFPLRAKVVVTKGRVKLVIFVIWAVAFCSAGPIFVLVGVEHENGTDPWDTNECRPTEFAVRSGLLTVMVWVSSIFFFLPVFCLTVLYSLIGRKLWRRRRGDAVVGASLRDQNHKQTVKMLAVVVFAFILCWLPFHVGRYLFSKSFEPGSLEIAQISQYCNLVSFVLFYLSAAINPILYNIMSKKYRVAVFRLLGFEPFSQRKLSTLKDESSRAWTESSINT

| EC50 in the GHS-R1a assay (stably transfected HEK-293T-GHS-R1a cells) [nM] | Substance |
| --- | --- |
| 18 | Acyl ghrelin (peptide) |
| 19 | Amide ghrelin (Ser3 Dap-Octanoyl-Amide) (peptide) |
| 270 | Ghrelin28-Oct-CoA (peptide) |

More lines, now with the values behind:

| Substance | EC50 in the GHS-R1a assay (stably transfected HEK-293T-GHS-R1a cells) [nM] |
| --- | --- |
| GO-Tat (peptide) | 23 |
| Des-acyl ghrelin (peptide) | > 10000 |
| GO-CoA-Tat (peptide) | > 10000 |
